Measurements: patent US20090041768A1 (published 2009)

Molecular target: FcRn
Assay: Biacore FcRn binding

EC50: ~680 nM
B1: Fc-loop TN8-19-07 (clone #6951) (Fc fusion)
chain: MDKTHTCPPCPAPELLGGPSVFLFPPKPKDTLMISRTPEVTCVVVDVSHEDPEVKFNWYVDGVEVHNAKTKPREEQYNSTYRVVSVLTVLHQDWLNGKEYKCKVSNKALPAPIEKTISKAKGQPREPQVYTLPPSRDELGGLADHGQCIRWPWMCPPEGWEGGTKNQVSLTCLVKGFYPSDIAVEWESNGQPENNYKTTPPVLDSDGSFFLYSKLTVDKSRWQQGNVFSCSVMHEALHNHYTQKSLSLSPGK
notes: also called Fc-loop-myo7; myostatin loop peptibody
